Substrate in series [1]: Cc1cn(-c2ccc(COP(=O)(O)O)o2)c(=O)[nH]c1=O
The series is described as follows: (§1) Compound was tested for binding affinity against Mycobacterium tuberculosis thymidine monophosphate kinase.

Substrate in series [2]: Cc1cn([C@H]2C[C@H](O)[C@@H](COP(=O)(O)O)O2)c(=O)[nH]c1=O
The description is as §1.

Substrate in series [3]: O=c1[nH]c(=O)n([C@H]2C[C@H](O)[C@@H](COP(=O)(O)O)O2)cc1F
The description is as §1.

Substrate in series [4]: Cc1cn([C@H]2C[C@H](F)[C@@H](COP(=O)(O)O)O2)c(=O)[nH]c1=O
The description is as §1.

Substrate in series [5]: O=c1[nH]c(=O)n([C@H]2C[C@H](O)[C@@H](COP(=O)(O)O)O2)cc1Br
The series is described as §1.

Substrate in series [6]: O=c1ccn([C@H]2C[C@H](O)[C@@H](COP(=O)(O)O)O2)c(=O)[nH]1
Described as §1.

Substrate in series [7]: O=c1[nH]c(=O)n([C@H]2C[C@H](O)[C@@H](COP(=O)(O)O)O2)cc1I
Described as §1.

Here are results for 1 protein from ChEMBL document CHEMBL1135342, “Synthesis and evaluation of thymidine-5'-O-monophosphate analogues as inhibitors of Mycobacterium tuberculosis thymidylate kinase” (Bioorg Med Chem Lett, 2002).

The term Km denotes the concentration of substrate that gives half-maximal velocity.

B1: Thymidylate kinase (Mycobacterium tuberculosis), P9WKE1 (protein)
chain: MLIAIEGVDGAGKRTLVEKLSGAFRAAGRSVATLAFPRYGQSVAADIAAEALHGEHGDLASSVYAMATLFALDRAGAVHTIQGLCRGYDVVILDRYVASNAAYSAARLHENAAGKAAAWVQRIEFARLGLPKPDWQVLLAVSAELAGERSRGRAQRDPGRARDNYERDAELQQRTGAVYAELAAQGWGGRWLVVGADVDPGRLAATLAPPDVPS
For the protein B1, the Km in series [1] is 140 µM; in series [2], 4.5 µM; in series [3] it was 420 µM; in series [4], 30 µM; in series [5] it was 33 µM; in series [6] it was 2100 µM. Also, the Km in series [7] was 140 µM.
